The supplement of paper PMC11780869

System: Bacillus subtilis
Assay: cleaved RNA product abundance (RNA/gDNA barcode ratio) relative to median wild-type variant (ratio to wild type); higher = more accumulation of the downstream cleavage product
Procedure: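 MPRA in B. subtilis. Mutagenized RNase Y cleavage-site regions (9% mutation rate) were inserted into a barcoded reporter mRNA (truncated aprE or tetM). Cells were grown in LB at 37°C to OD600 0.3. The cleaved RNA isoform was gel-purified and its barcodes counted; the RNA:gDNA barcode ratio was normalised to the median wild-type variant, and the median over barcodes is reported per variant. The printed sequence is the variable window only; the reporter flanks are not printed.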

[1] = experiment (reporter, strain, medium): exp 2b: truncated aprE reporter, strain BJT200, cleavage site: cggR-gapA (positions -7 to +36 mutated)
[2] = experiment (reporter, strain, medium): exp 4a: truncated aprE reporter, strain BJT201 with 2% xylose (RNase J1 expressed), cleavage site: cggR-gapA (positions -7 to +36 mutated)
[3] = experiment (reporter, strain, medium): exp 8a: truncated aprE reporter, strain BJT201 with 2% xylose (RNase J1 expressed), cleavage site: glnRA (positions -5 to +31 mutated)

Sequence	cleaved RNA product abundance [2]	other results
ACAGACGAAGGAGCCGCATAGAATTTATTAAGGGATGAATAATCCCTCAATATAAATATCTCTCACTTATTTAAA	0.514	cleaved RNA product abundance [1]: 0.76
ACAGACGAAGGAGCCGCAAAAAAGTTATTAAGGGATGAATAATCCCCCAATATAAATATCTCTCACTTATTTAAA	0.35	cleaved RNA product abundance [1]: 0.238
ACAGACGAAGGAGCCGCAAAGAACTTATTAAGAGATGAATAATCCCTCAATATAAATATCTCTCACTTATTTAAA	0.147	cleaved RNA product abundance [1]: 0.092
ACAGACGAAGGAGCCGCAAAGAAGTTATTAAGGGATGAATAATCCCTTAATATAGATATCTCTCACTTATTTAAA	0.866	–
ACAGACGAAGGAGCCGCAAAGAAGATATTAAGGGATCAATAATCCCTCAATATAAATATCTCTCACTTATTTAAA	0.815	cleaved RNA product abundance [1]: 0.501
ACAGACGAAGGAGCCGCAAACAAGTTATTAAGGGATGAATAATCCCTCAACATAAATATCTCTCACTTATTTAAA	0.25	–
ACAGACGAAGGAGCCGCACAGAAGTTATCAAGGGATGAATAATCCCTCAATATAAATATCTCTCACTTATTTAAA	0.365	–
ACAGACGAAGGAGCCGCAAAGAAGTTACTAAGGGATAAATAATCCCTCAATATAAATATCTCTCACTTATTTAAA	0.224	cleaved RNA product abundance [1]: 0.206
ACAGACGAAGGAGCCGCAAAGAAGTTATTAAGGGATGAATAATGCCACAATATAAATATCTCTCACTTATTTAAA	0.0904	–
ACAGACGAAGGAGCCGCATAGAAGTTATTAAGGGATGAATAATCCCTCACTATAAATATCTCTCACTTATTTAAA	0.24	–
CGACATGTCCCGCTTCTTTCATTAATCCGTTACCAACTGTTTTGCTATATACATTTACTTTTTAAGAGGAGGAAT	–	cleaved RNA product abundance [3]: 0.208
ACAGACGAAGGAGCCGCAAAGAAGTTATTAAAGGATAAATAAACCCTCAATATAAATATCTCTCACTTATTTAAA	0.128	–
CGACATGTCCCGCTTCTTTCATTAATCCGTTAGCAACTGTTTTGCTATAAATATTTACCTTTTAAGAGGAGGAAT	–	cleaved RNA product abundance [3]: 1.49
CGACATGTCCCGCTTCTTTCATTAATCTGTTAGCAACTGTTTTGCTATAGACATTTACCTTTTAAGAGGAGGAAT	–	cleaved RNA product abundance [3]: 0.968
ACAGACGAAGGAGCCGCAAAGAAGTTATTAAGGGATGAATAATCCTTCAGTATAAATATCTCTCACTTATTTAAA	0.166	–
CGACATGTCCCGCTTCTTTCATTAATCCGTTAGCAACTGTTTATCTATATACATTTACCTTTTAAGAGGAGGAAT	–	cleaved RNA product abundance [3]: 0.501
ACAGACGAAGGAGCCGCAAAGAAGTTTTTAAGGAATGAATAATCCCTCAATATAAATATCTCTCACTTATTTAAA	0.163	cleaved RNA product abundance [1]: 0.0825
ACAGACGAAGGAGCCGCAAAGAAGTTATAAAGGGATGAATAATCCATCAATATAAATATCTCTCACTTATTTAAA	0.26	–
ACAGACGAAGGAGCCGCAAAGAACTTATTAAGGGATGTATAATCCCTCAATATAAATATCTCTCACTTATTTAAA	0.637	–
ACAGACGAAGGAGCCGCAATGAAGTTATTAAGGGATGAATAATCCTTCAATATAAATATCTCTCACTTATTTAAA	0.581	–
ACAGACGAAGGAGCCGCAAAGAAGTTATAAAGGGATGAATAATCCCTCAACATAAATATCTCTCACTTATTTAAA	0.304	–
CGACATGTCCCGCTTCTTTCATTAATCCGTTAGCGACTGTTTTGCTATATACATTTACCTTTTAAGAGGAGGAAT	–	cleaved RNA product abundance [3]: 0.385
ACAGACGAAGGAGCCGCAAAGAAGTTATTAAGTGATGAATAATCCCTCCATATAAATATCTCTCACTTATTTAAA	0.104	–
ACAGACGAAGGAGCCGCAAAGAAGTTATTAAGGGAAGAATAATCCCTCAATATAAAAATCTCTCACTTATTTAAA	0.563	–
CGACATGTCCCGCTTCTTTCATTAATCCGTTAGCAACTATTTTGCAATATACATTTACCTTTTAAGAGGAGGAAT	–	cleaved RNA product abundance [3]: 0.531
ACAGACGAAGGAGCCGCAAAGAAGTTATTAAAGGATGAATAATCCCTCAATATATATATCTCTCACTTATTTAAA	0.16	–
ACAGACGAAGGAGCCGCAAAGAAGTTATTAAGGGATGACTAATCCCTCTATATAAATATCTCTCACTTATTTAAA	0.337	–

Sequence	cleaved RNA product abundance [2]	other results
ACAGACGAAGGAGCCGCAAAGAAGCTATTAAGGGATCAATAATCCCTCAATATAAATATCTCTCACTTATTTAAA	0.425	–
ACAGACGAAGGAGCCGCAAAGAAGTTAATAAGGGATGAATAATCCCTAAATATAAATATCTCTCACTTATTTAAA	0.306	–
ACAGACGAAGGAGCCGCTAAGAAGTTATTAAGGTATGAATAATCCCTCAATATAAATATCTCTCACTTATTTAAA	0.296	cleaved RNA product abundance [1]: 0.114
ACAGACGAAGGAGCCGCAAAGAAGTTATTAAGTGATGAATAATCGCTCAATATAAATATCTCTCACTTATTTAAA	–	cleaved RNA product abundance [1]: 0.522
ACAGACGAAGGAGCCGCAAAGAAGTTACTAAGGGACGAATAATCCCTCAATATAAATATCTCTCACTTATTTAAA	–	cleaved RNA product abundance [1]: 0.131
ACAGACGAAGGAGCCGCAAAGAAGTTATTATGGGATGAATAATCCCTCAAAATAAATATCTCTCACTTATTTAAA	0.277	–
CGACATGTCCCGCTTCTTTCATTAATCCGTTATCAACTGTTTTGATATATACATTTACCTTTTAAGAGGAGGAAT	–	cleaved RNA product abundance [3]: 0.26
ACAGACGAAGGAGCCGCAAAGAAGTTATTAAGGGATGAATAATCCCTCAATATATATTTCTCTCACTTATTTAAA	0.561	–
CGACATGTCCCGCTTCTTTCATTAATCCGTTAGCAAATGTTTTGCTATATAAATTTACCTTTTAAGAGGAGGAAT	–	cleaved RNA product abundance [3]: 0.499
CGACATGTCCCGCTTCTTTCATTAATCCGTTAGCAACAATTTTGCTATATACATTTACCTTTTAAGAGGAGGAAT	–	cleaved RNA product abundance [3]: 1.04
CGACATGTCCCGCTTCTTTCATTAATTCGTTACCAACTGTTTTGCTATATACATTTACCTTTTAAGAGGAGGAAT	–	cleaved RNA product abundance [3]: 0.231
ACAGACGAAGGAGCCGCAAAGAAGTAATTAAGGGATGAATAATTCCTCAATATAAATATCTCTCACTTATTTAAA	0.263	–
ACAGACGAAGGAGCCGCAAAGAAGTTTTTAAGGGATGAATAATCCCTCAATATAAATATCTCTCACTTATTTAAA	0.365	cleaved RNA product abundance [1]: 0.274; cleaved RNA product abundance (experiment (reporter, strain, medium): exp 6: tetM reporter, strain 168, cleavage site: cggR-gapA (positions -7 to +36 mutated)): 0.209
ACAGACGAAGGAGCCGCAAAGAAGTTATTAATGGATGAATAATGCCTCAATATAAATATCTCTCACTTATTTAAA	0.105	cleaved RNA product abundance [1]: 0.0612
ACAGACGAAGGAGCCGCAAATAAGTTATTAAGGGATGAATAATCCCTCAATATACATATCTCTCACTTATTTAAA	0.64	cleaved RNA product abundance [1]: 0.727
ACAGACGAAGGAGCCGCAAAGAAGTTATTAAGGGATGATTAATCCCTCAATATTAATATCTCTCACTTATTTAAA	–	cleaved RNA product abundance [1]: 0.164
ACAGACGAAGGAGCCGCAAAGAAGTTAATAAGGGATGAATAATCCATCAATATAAATATCTCTCACTTATTTAAA	0.224	cleaved RNA product abundance [1]: 0.166
CGACATGTCCCGCTTCTTTCATTAATCTGTTAACAACTGTTTTGCTATATACATTTACCTTTTAAGAGGAGGAAT	–	cleaved RNA product abundance [3]: 0.238
ACAGACGAAGGAGCCGCAAAGAAGTTATTAAGGGATGAATAATCCCTCAAAATAAAAATCTCTCACTTATTTAAA	0.393	–
ACAGACGAAGGAGCCGCAAACAAGTTATTATGGGATGAATAATCCCTCAATATAAATATCTCTCACTTATTTAAA	0.213	–
ACAGACGAAGGAGCCGCAAAGAAGTTATTAAGTGATGAATAATCCCCCAATATAAATATCTCTCACTTATTTAAA	0.127	–
CGACATGTCCCGCTTCTTTCATTAATCTGTTAGCAACTGTTCTGCTATATACATTTACCTTTTAAGAGGAGGAAT	–	cleaved RNA product abundance [3]: 0.368
ACAGACGAAGGAGCCGCAAAGTAGTTATTAAGGGATAAATAATCCCTCAATATAAATATCTCTCACTTATTTAAA	0.9	–
CGACATGTCCCGCTTCTTTCATTAATCCCTTACCAACTGTTTTGCTATATACATTTACCTTTTAAGAGGAGGAAT	–	cleaved RNA product abundance [3]: 0.187
CGACATGTCCCGCTTCTTTCATTAATCCGTTACGAACTGTTTTGCTATATACATTTACCTTTTAAGAGGAGGAAT	–	cleaved RNA product abundance [3]: 0.291
CGACATGTCCCGCTTCTTTCATTATTCCGTTAGCAACTGTTTTGCCATATACATTTACCTTTTAAGAGGAGGAAT	–	cleaved RNA product abundance [3]: 0.346
ACAGACGAAGGAGCCGCAAAGAAGTTATTAAAGGATGAATAATCCCCTCAATATAAATATCTCTCACTTATTTAA	0.159	–
